Results: US7238668B1, “Inhibition of lymphocyte adherence with CS-1-peptides and fragments thereof” (Fred Hutchinson Cancer Research Center, priority 1989, dated 2007)
Ends that are not written are not given here.

How the values were obtained:
[1] = tested on: Ramos (B) lymphocyte adhesion to HUVE monolayers; test: Endothelial cell adhesion assay, Ramos cells on HUVE monolayers; format: cell-based, human; settings: Table XI
Protocol: (§1) HUVEs were incubated with IL-1 β (1 ng/ml) or in some experiments with TNF α (10 ng/ml) for 6–24 hours. At the end of this incubation the HUVE monolayers were washed and used in the adhesion assay.
(§2) Human umbilical vein endothelial cells (HUVEs) were cultured in 48 well plates as described (supra). To measure adherence of lymphocytes to HUVE monolayer cultures, lymphocytes were labeled with Na2 ^51CrO4 (50 μCi/ml) for 2–4 hours), washed, and then 10^5 lymphocytes were incubated with HUVE monolayers in the presence or absence of inhibitory antibodies or CS-1 derived peptides. The lymphocytes were allowed to adhere for 30 minutes at 37°. Non-adherent cells were subsequently removed by washing with PBS, and the adherent cells were dissolved in SDS/NaOH. Bound ^51Cr-cpm were quantitated in a gamma counter. In some experiments, endothelial cells were activated prior to the adhesion assay by incubating with IL-1 β (1 ng/ml) or […] (10 ng/ml) for 6–24 hours in defined CS-100 media (Cell Systems, Seattle, Wash.).

[2] = tested on: T lymphocytes (Jurkat or Molt 4 cells); test: T lymphocyte adhesion to plasma fibronectin, tryptic fragments and CS peptides; format: cell-based, human
Protocol: (§3) Antibodies that would alter cell adhesion to purified plasma fibronectin, tryptic fragments and CS peptides were identified as previously described (Wayner and Carter, 1987). […] The plates were blocked with PBS supplemented with 10 mg/ml heat denatured BSA (HBSA). T lymphocyte or HT1080 cells were labeled with Na2 ^51CrO4 (50 μlCi/ml for 2–4 hr), washed, and 5×10^4 HT1080 or cultured T cells or […] were incubated with hybridoma culture supernatants (1:2 dilution in PBS supplemented with 1 mg/ml heat denatured BSA) or control myeloma cell culture supernatant for 15 minutes at room temperature. The cells were allowed to adhere to the protein-coated surfaces in the presence of the hybridoma supernatants for 15–30 minutes (HT1080) or 2–4 hours (lymphocytes) at 37° C. Non-adherent cells were removed by washing with PBS, and the adherent cells were dissolved in SDS/NaOH and bound ^51Cr-cpm were quantitated in a gamma counter.
Human plasma fibronectin was a generous gift from Drs. Horowitz and R. Schulman (New York Blood Center, N.Y.). […] Two overlapping peptides spanning the initial 48 residues of the IIICS region of human fibronectin (CS-1 and CS-2) were synthesized and coupled to rabbit IgG as described (Humphries et al., 1986, and Humphries et al., 1987, J. Biol. Chem. 262:6886–6892).

K562-1 cells = test: Inhibition of K562 cell adhesion to plasma fibronectin and fragments; format: cell-based, human
[3] = tested on: Jurkat (T) lymphocyte adhesion to HUVE monolayers; test: Endothelial cell adhesion assay, Jurkat cells on HUVE monolayers; format: cell-based, human; settings: Table XI
Protocol: as §1, §2

fibroblasts = test: Inhibition of fibroblast adhesion to plasma fibronectin; format: cell-based
Protocol: as §3

Jurkat = test: Inhibition of Jurkat cell adhesion to plasma fibronectin and its fragments; format: cell-based, human
Protocol: as §3

[4] = tested on: LAD (B) lymphocyte adhesion to HUVE monolayers; test: Endothelial cell adhesion assay, LAD cells on HUVE monolayers; format: cell-based, human; settings: Table XI
Protocol: as §1, §2

integrin α5β1 [5] = target: T1, integrin α5β1 (human, UniProt P08648 42-1049; P05556 21-798); test: adhesion of 51Cr-Molt 4 cells to plasma fibronectin-coated plastic with hybridoma supernatant; SP2 control 100%
T1 sequence (P08648 42-1049, chain 1 of 2): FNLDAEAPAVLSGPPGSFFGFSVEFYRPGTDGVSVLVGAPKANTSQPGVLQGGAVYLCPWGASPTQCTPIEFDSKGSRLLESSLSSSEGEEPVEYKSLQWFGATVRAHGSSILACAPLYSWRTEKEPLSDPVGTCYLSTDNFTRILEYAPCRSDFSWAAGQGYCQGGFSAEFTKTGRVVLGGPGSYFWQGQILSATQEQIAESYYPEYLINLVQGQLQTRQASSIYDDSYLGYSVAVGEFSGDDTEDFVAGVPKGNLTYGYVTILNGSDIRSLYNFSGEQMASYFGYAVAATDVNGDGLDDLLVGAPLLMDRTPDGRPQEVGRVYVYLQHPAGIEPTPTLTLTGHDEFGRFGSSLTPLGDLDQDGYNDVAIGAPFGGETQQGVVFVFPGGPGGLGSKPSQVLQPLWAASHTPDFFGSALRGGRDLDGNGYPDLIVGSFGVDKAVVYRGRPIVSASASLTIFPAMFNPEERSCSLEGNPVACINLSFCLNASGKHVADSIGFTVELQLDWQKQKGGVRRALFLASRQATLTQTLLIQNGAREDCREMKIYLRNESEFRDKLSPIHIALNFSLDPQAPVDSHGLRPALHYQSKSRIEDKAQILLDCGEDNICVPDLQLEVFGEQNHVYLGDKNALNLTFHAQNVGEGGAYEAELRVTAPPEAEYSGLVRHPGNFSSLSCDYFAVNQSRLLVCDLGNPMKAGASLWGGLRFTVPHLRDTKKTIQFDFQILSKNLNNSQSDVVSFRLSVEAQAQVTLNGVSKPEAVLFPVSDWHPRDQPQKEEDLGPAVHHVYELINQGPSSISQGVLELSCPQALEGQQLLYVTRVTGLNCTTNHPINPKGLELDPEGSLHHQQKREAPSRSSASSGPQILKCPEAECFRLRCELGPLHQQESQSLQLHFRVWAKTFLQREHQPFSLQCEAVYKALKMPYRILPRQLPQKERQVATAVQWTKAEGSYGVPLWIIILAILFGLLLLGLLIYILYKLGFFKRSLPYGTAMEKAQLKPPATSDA
T1 sequence (P05556 21-798, chain 2 of 2): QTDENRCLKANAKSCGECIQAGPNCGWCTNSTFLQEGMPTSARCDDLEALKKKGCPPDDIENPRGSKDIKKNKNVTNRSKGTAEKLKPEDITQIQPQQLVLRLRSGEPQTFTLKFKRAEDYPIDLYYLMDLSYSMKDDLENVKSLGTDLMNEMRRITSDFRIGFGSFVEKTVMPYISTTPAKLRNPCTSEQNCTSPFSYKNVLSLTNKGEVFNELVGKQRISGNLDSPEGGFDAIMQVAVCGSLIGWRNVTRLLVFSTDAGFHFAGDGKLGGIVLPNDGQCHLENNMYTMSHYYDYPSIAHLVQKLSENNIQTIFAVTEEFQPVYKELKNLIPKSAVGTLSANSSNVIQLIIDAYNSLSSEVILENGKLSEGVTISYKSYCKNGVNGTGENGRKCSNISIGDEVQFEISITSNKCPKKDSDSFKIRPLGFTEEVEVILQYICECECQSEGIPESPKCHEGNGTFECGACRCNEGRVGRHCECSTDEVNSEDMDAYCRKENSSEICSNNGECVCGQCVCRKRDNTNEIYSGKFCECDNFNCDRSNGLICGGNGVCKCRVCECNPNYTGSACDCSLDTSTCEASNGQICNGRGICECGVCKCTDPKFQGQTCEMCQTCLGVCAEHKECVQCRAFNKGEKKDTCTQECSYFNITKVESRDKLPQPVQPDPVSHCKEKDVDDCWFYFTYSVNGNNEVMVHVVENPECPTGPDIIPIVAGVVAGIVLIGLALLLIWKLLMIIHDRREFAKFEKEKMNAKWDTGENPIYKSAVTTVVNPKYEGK

integrin α5β1 [6] = target: T1, integrin α5β1; test: adhesion of 51Cr-HT1080 cells to plasma fibronectin-coated plastic with hybridoma supernatant; SP2 control 100%
integrin α5β1 [7] = target: T1, integrin α5β1; test: adhesion of 51Cr-PBL to plasma fibronectin-coated plastic with hybridoma supernatant; SP2 control 100%
integrin α5β1 [8] = target: T1, integrin α5β1; test: adhesion of T lymphocytes to 80 kDa-coated plastic with P1D6; IgG control 8580
integrin α5β1 [9] = target: T1, integrin α5β1; test: cell-based or functional assay
integrin α5β1 [10] = target: T1, integrin α5β1; test: adhesion of T lymphocytes to CS-2 (rabbit IgG conjugate)-coated plastic with P1D6; IgG control […]
integrin α5β1 [11] = target: T1, integrin α5β1; test: adhesion of T lymphocytes to 38 kDa-coated plastic with P1D6; IgG control 22680
integrin α5β1 [12] = target: T1, integrin α5β1; test: adhesion of T lymphocytes to CS-1 (rabbit IgG conjugate)-coated plastic with P1D6; IgG control 44339
integrin α5β1 [13] = target: T1, integrin α5β1; test: adhesion of 51Cr-Jurkat cells to plasma fibronectin-coated plastic with hybridoma supernatant; SP2 control 100%
integrin receptor α4β1 [14] = target: T2, integrin receptor α4β1 (human, UniProt P13612 34-1032; P05556 21-798); test: adhesion of 51Cr-Molt 4 cells to plasma fibronectin-coated plastic with hybridoma supernatant; SP2 control 100%
T2 sequence (P13612 34-1032, form in doubt, chain 1 of 2): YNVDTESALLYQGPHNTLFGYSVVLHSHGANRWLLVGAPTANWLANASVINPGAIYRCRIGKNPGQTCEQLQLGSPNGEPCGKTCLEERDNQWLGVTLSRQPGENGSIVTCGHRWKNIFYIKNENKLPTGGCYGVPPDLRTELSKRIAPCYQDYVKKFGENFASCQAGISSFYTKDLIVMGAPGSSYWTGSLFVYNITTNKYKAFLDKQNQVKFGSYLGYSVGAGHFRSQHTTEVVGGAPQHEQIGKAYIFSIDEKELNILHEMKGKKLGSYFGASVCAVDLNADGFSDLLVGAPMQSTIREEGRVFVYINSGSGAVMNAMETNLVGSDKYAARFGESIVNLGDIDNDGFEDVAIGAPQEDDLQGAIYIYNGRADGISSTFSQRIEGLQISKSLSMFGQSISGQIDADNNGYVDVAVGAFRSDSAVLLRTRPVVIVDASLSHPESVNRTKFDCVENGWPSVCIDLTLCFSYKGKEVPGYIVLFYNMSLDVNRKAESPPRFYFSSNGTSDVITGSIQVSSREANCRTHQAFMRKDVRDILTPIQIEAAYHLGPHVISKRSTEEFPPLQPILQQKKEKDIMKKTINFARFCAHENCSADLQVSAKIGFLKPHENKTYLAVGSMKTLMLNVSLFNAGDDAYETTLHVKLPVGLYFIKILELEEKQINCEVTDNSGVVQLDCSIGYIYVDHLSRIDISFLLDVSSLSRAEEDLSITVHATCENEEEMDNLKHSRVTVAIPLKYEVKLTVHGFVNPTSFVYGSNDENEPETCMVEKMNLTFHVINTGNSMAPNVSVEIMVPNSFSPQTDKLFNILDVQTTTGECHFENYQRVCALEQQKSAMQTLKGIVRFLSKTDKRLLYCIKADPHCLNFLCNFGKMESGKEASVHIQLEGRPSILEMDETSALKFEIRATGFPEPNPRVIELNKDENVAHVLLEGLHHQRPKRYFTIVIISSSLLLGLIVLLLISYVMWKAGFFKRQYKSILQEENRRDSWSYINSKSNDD
T2 sequence (P05556 21-798, form in doubt, chain 2 of 2): as the sequence (P05556 21-798, chain 2 of 2) above

integrin receptor α4β1 [15] = target: T2, integrin receptor α4β1; test: adhesion of 51Cr-HT1080 cells to plasma fibronectin-coated plastic with hybridoma supernatant; SP2 control 100%
integrin receptor α4β1 [16] = target: T2, integrin receptor α4β1; test: adhesion of 51Cr-PBL to plasma fibronectin-coated plastic with hybridoma supernatant; SP2 control 100%
integrin receptor α4β1 [17] = target: T2, integrin receptor α4β1; test: adhesion of T lymphocytes to 80 kDa-coated plastic with P4C2; IgG control 8580
integrin receptor α4β1 [18] = target: T2, integrin receptor α4β1; test: adhesion of T lymphocytes to CS-2 (rabbit IgG conjugate)-coated plastic with P4C2; IgG control […]
integrin receptor α4β1 [19] = target: T2, integrin receptor α4β1; test: cell-based or functional assay
integrin receptor α4β1 [20] = target: T2, integrin receptor α4β1; test: adhesion of 51Cr-Jurkat cells to plasma fibronectin-coated plastic with hybridoma supernatant; SP2 control 100%
integrin receptor α4β1 [21] = target: T2, integrin receptor α4β1; test: adhesion of T lymphocytes to 38 kDa-coated plastic with P4C2; IgG control 22680
integrin receptor α4β1 [22] = target: T2, integrin receptor α4β1; test: adhesion of T lymphocytes to CS-1 (rabbit IgG conjugate)-coated plastic with P4C2; IgG control 44339
integrin receptor α4β1 [23] = target: T2, integrin receptor α4β1; test: adhesion of 51Cr-Jurkat cells to surfaces coated with graded peptide-rsa conjugate; 50% of total input cpm, read from plot
Protocol: Therefore, peptide-conjugates were prepared using rabbit serum albumin (rsa) as a carrier and the conjugates were tested for their ability to support cell adhesion. […] The adhesion experiments presented in Table XIV were conducted as follows:
(No adhesion=no measurable adhesion above negative controls.)

integrin receptor α4β1 [24] = target: T2, integrin receptor α4β1; test: T lymphocyte adhesion to coated fragments
integrin receptor α4β1 [25] = target: T2, integrin receptor α4β1; test: adhesion of Jurkat and Molt 4 cells to coated fragments

“Arg-Gly-Asp-Ser (RGDS) [reference compound]” was tested, and the “Adhesion (cpm) +IL-1β” value ([1]; IL-1β activated HUVE, no peptide 12936) was 28104 cpm, the “Adhesion (cpm) Basal” value ([1]; basal HUVE, no peptide 2724) was 16920 cpm and the “Inhibition of adhesion to plasma fibronectin” value (“Inhibition of adhesion” below) ([2]; Molt 4 or Jurkat cells) was 50–70%. For the same molecule, the “Inhibition of adhesion” value (K562-1 cells) was 100%, the “Adhesion (cpm) +IL-1β” value ([3]; IL-1β activated HUVE, no peptide 314848) was 357616 cpm and the “Adhesion (cpm) Basal” value ([3]; basal HUVE, no peptide 161092) was 298688 cpm. The “Inhibition of adhesion” value (fibroblasts) was 80–90%, the “Inhibition of Jurkat cell adhesion to intact fibronectin” value (Jurkat; 1 mg/ml) was 50% and the “Inhibition of Jurkat cell adhesion to the 80 kDa fragment” value (Jurkat; 1 mg/ml) was 100%. The “Effect on Jurkat cell adhesion to the 38 kDa fragment” value (Jurkat; up to 1 mg/ml) was “unaffected”, the “Adhesion (cpm) +IL-1β” value ([4]; IL-1β activated HUVE, no peptide 71408) was 102076 cpm and the “Adhesion (cpm) Basal” value ([4]; basal HUVE, no peptide 44860) was 70652 cpm.

monoclonal antibody P1D6 gave a Fibronectin Adhesion (% Control) (integrin α5β1 [5]) of 18 % Control, a Fibronectin Adhesion (% Control) (integrin α5β1 [6]) of 5 % Control and a Fibronectin Adhesion (% Control) (integrin α5β1 [7]) of 43 % Control. It also gave a T lymphocyte adhesion (unit not given) (integrin α5β1 [8]) of 202, an Adhesion (cpm), Jurkat (T) on HUVE monolayers, +IL-1β; SP2 control 372159 (integrin α5β1 [9]) of 418000 cpm and an Adhesion (cpm), Jurkat (T) on HUVE monolayers, Basal; SP2 control 83924 (integrin α5β1 [9]) of 84000 cpm. The Adhesion (cpm), LAD (B) on HUVE monolayers, +IL-1β; SP2 control 104672 (integrin α5β1 [9]) was 114000 cpm, the Adhesion (cpm), LAD (B) on HUVE monolayers, Basal; SP2 control 19542 (integrin α5β1 [9]) was 15700 cpm and the Adhesion (cpm), Ramos (B) on HUVE monolayers, +IL-1β; SP2 control 12157 (integrin α5β1 [9]) was 11200 cpm. It also gave an Adhesion (cpm), Ramos (B) on HUVE monolayers, Basal; SP2 control 972 (integrin α5β1 [9]) of 808 cpm, a T lymphocyte adhesion (unit not given) (integrin α5β1 [10]) of 435 and a T lymphocyte adhesion (unit not given) (integrin α5β1 [11]) of 24900. It also gave a T lymphocyte adhesion (unit not given) (integrin α5β1 [12]) of 42900 and a Fibronectin Adhesion (% Control) (integrin α5β1 [13]) of 22 % Control.

For monoclonal antibody P4C2, the Fibronectin Adhesion (% Control) (integrin receptor α4β1 [14]) was 8 % Control, the Fibronectin Adhesion (% Control) (integrin receptor α4β1 [15]) was 93 % Control and the Fibronectin Adhesion (% Control) (integrin receptor α4β1 [16]) was 10 % Control. It also gave a T lymphocyte adhesion (unit not given) (integrin receptor α4β1 [17]) of 7150, a T lymphocyte adhesion (unit not given) (integrin receptor α4β1 [18]) of 535 and an Adhesion (cpm), Jurkat (T) on HUVE monolayers, +IL-1β; SP2 control 372159 (integrin receptor α4β1 [19]) of 137000 cpm. For the same molecule, the Adhesion (cpm), Jurkat (T) on HUVE monolayers, Basal; SP2 control 83924 (integrin receptor α4β1 [19]) was 23100 cpm, the Adhesion (cpm), LAD (B) on HUVE monolayers, +IL-1β; SP2 control 104672 (integrin receptor α4β1 [19]) was 38100 cpm and the Adhesion (cpm), LAD (B) on HUVE monolayers, Basal; SP2 control 19542 (integrin receptor α4β1 [19]) was 6460 cpm. For the same molecule, the Adhesion (cpm), Ramos (B) on HUVE monolayers, +IL-1β; SP2 control 12157 (integrin receptor α4β1 [19]) was 3690 cpm, the Adhesion (cpm), Ramos (B) on HUVE monolayers, Basal; SP2 control 972 (integrin receptor α4β1 [19]) was 456 cpm and the Fibronectin Adhesion (% Control) (integrin receptor α4β1 [20]) was 12 % Control. For the same molecule, the T lymphocyte adhesion (unit not given) (integrin receptor α4β1 [21]) was 114 and the T lymphocyte adhesion (unit not given) (integrin receptor α4β1 [22]) was 841.

B1: rsa-CS-1 (peptide)
peptide: DELPQLVTLPHPNLHGPEILDVPST
modifications: also: conjugated to SMCC-derivatized rabbit serum albumin
notes: also called CS-1-rsa; CS-1 (RSA conjugate)
With B1 the “Molar Concentration required for 50% adhesion of Jurkat cells” value (integrin receptor α4β1 [23]) was 115 nM.

With LHGPEILDVPST (also: conjugated to SMCC-derivatized rabbit serum albumin, also called B12-rsa conjugate) [rsa-B12] the “Molar Concentration required for 50% adhesion of Jurkat cells” value (integrin receptor α4β1 [23]) was 492 nM.

B2: 38 kDa tryptic fragment of plasma fibronectin (ligand, human, UniProt P02751-8 1589-1968, looked up)
chain: TAGPDQTEMTIEGLQPTVEYVVSVYAQNPSGESQPLVQTAVTTIPAPTDLKFTQVTPTSLSAQWTPPNVQLTGYRVRVTPKEKTGPMKEINLAPDSSSVVVSGLMVATKYEVSVYALKDTLTSRPAQGVVTTLENVSPPRRARVTDATETTITISWRTKTETITGFQVDAVPANGQTPIQRTIKPDVRSYTITGLQPGTDYKIYLYTLNDNARSSPVVIDASTAIDAPSNLRFLATTPNSLLVSWQPPRARITGYIIKYEKPGSPPREVVPRPRPGVTEATITGLEPGTEYTIYVIALKNNQKSEPLIGRKKTDELPQLVTLPHPNLHGPEILDVPSTVQKTPFVTHPGYDTGNGIQLPGTSGQQPSVGQQMIFEEHGFR
notes: domain: Hep II and first 67 residues of IIICS (38 kDa tryptic fragment); also called CTCBD fragment
For B2, the “efficiency in mediating T lymphocyte adhesion relative to the 58 kDa fragment (molar basis)” value (integrin receptor α4β1 [24]) was 3 times and the “Efficiency in mediating T lymphocyte adhesion, on a molar basis” value ([2]; compared with the 58 kDa fragment) was “three times more efficient than the 58 kDa fragment”.

In the case of EILDV (also: conjugated to SMCC-derivatized rabbit serum albumin, also called EILDV-RSA) [rsa-EILDV], the “Molar Concentration required for 50% adhesion of Jurkat cells” value (integrin receptor α4β1 [23]) is reported as 1130 nM.

B3: 58 kDa tryptic fragment of plasma fibronectin (ligand, human, UniProt P02751-10 1589-2125, looked up)
chain: TAGPDQTEMTIEGLQPTVEYVVSVYAQNPSGESQPLVQTAVTTIPAPTDLKFTQVTPTSLSAQWTPPNVQLTGYRVRVTPKEKTGPMKEINLAPDSSSVVVSGLMVATKYEVSVYALKDTLTSRPAQGVVTTLENVSPPRRARVTDATETTITISWRTKTETITGFQVDAVPANGQTPIQRTIKPDVRSYTITGLQPGTDYKIYLYTLNDNARSSPVVIDASTAIDAPSNLRFLATTPNSLLVSWQPPRARITGYIIKYEKPGSPPREVVPRPRPGVTEATITGLEPGTEYTIYVIALKNNQKSEPLIGRKKTGQEALSQTTISWAPFQDTSEYIISCHPVGTDEEPLQFRVPGTSTSATLTGLTRGATYNVIVEALKDQQRHKVREEVVTVGNSVNEGLNQPTDDSCFDPYTVSHYAVGDEWERMSESGFKLLCQCLGFGSGHFRCDSSRWCHDNGVNYKIGEKWDRQGENGQMMSCTCLGNGKGEFKCDPHEATCYDDGKTYHVGEQWQKEYLGAICSCTCFGGQRGWRCDNCRR
notes: domain: Hep II and Fib II (58 kDa tryptic fragment)
With B3 the “maximum cell attachment relative to the 38 kDa fragment” value (integrin receptor α4β1 [25]) was 30%.
